B3: Human Scribble (SCRIB) PDZ2 domain (860-950) (domain or fragment)
chain: RHVACLARSERGLGFSIAGGKGSTPYRAGDAGIFVSRIAEGGAAHRAGTLQVGDRVLSINGVDVTEARHDHAVSLLTAASPTIALLLEREA

Where two headings read alike, the source gives them in different places.

The subject of one series is PDZ. The settings on record: phosphorylated at the −2 position; ref [51], [52]; cited from earlier work.
The target of series [1] is T1, Human Scribble (SCRIB) PDZ4 domain (1099-1203) (human, UniProt Q14160 1099-1203).
T1 sequence: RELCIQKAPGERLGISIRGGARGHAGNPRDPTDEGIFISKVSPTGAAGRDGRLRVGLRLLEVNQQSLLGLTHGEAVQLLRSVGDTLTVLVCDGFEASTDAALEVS
Briefly: ITC. On the technique in general: In ITC the heat of successive injections is recorded.

Series [2] has as its target T2, Human Scribble (SCRIB) PDZ1 domain (728-815) (human, UniProt Q14160 728-815). Put plainly: ITC.
Series [3] concerns the target T3, Human Scribble (SCRIB) PDZ3 domain (1002-1094) (human, UniProt Q14160 1002-1094).
T3 sequence: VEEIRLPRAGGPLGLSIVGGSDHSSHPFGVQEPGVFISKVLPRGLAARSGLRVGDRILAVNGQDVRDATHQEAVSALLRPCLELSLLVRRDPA
Put plainly: ITC.

In series [4] the target is B3. Briefly: ITC.
The target in series [5] is T1, Human Scribble (SCRIB) PDZ4 domain …. Put plainly: ITC. This is another data set of the same source.
Series [6] concerns the target T2, Human Scribble (SCRIB) PDZ1 domain …. Briefly: ITC. The source holds these as a separate data set.
Series [7] concerns the target T3, Human Scribble (SCRIB) PDZ3 domain …. Put plainly: ITC. This is another data set of the same source.
Series [8] deals with B3. Put plainly: ITC. This is another data set of the same source.
The series “AUC” concerns the molecule itself. Put plainly: AUC.

For orientation: Kd means the equilibrium constant for the complex coming apart. By stoichiometry N is commonly meant a count of units in the complex or per binding partner.

T2 sequence (Q14160 728-815): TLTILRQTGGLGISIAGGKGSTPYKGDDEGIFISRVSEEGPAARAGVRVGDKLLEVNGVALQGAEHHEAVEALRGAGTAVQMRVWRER

Regarding “HTLV‐1 Tax1: oncogenic Tax1 protein of HTLV‐1”, the “effect of phosphorylation at the −2 position of PBM on PDZ recognition” value in the series on PDZ is “phosphorylation inhibiting PDZ recognition”.

B1: HTLV-1 Tax1 PBM peptide (KHFRETEV, residues 346-353) (peptide)
peptide: KHFRETEV
For B1, the Kd came out at 40.2 µM in series [1], 7.8 µM in series [2], 9.1 µM in series [3] and 15.4 µM in series [4]. For the same molecule, the dH was -2.17 kcal/mol in series [1], -4.21 kcal/mol in series [2], -13.3 kcal/mol in series [3] and -4.08 kcal/mol in [4]. For the same molecule, the “stoichiometry N” value came out at 1 in series [1], 1.1 in [2], 0.9 in series [3] and 1.1 in [4].

B2: Superpeptide (RSWFETWV) (peptide)
peptide: RSWFETWV
Regarding B2, the Kd in [5] was 12.6 µM; in series [6] it was 0.6 µM; in series [7] it was 1.6 µM; in [8], 2.2 µM. Besides, the dH in series [5] is -2.9 kcal/mol; in series [6] it was -3.72 kcal/mol; in [7], -11.3 kcal/mol; in [8], -7.04 kcal/mol. Further, the “stoichiometry N” value in series [5] came out at 1.1; in series [6], 0.9; in series [7], 0.9; in series [8], 1.

Regarding B3, in “AUC”, the “stoichiometry N” value turned out to be 2.

The values are drawn from paper PMC10952772 (The Febs Journal, 2022).
